Assay results: paper PMC13522589, “Weak SLP-76/PLC-γ1 interaction fine-tunes T cell receptor signal strength to optimize T cell responsiveness” (Nature Communications, 2026)

B2: Phospholipase C-γ1 (PLC-γ1), 1–1219 (enzyme, UniProt P19174 1-1219, looked up)
chain: MAGAASPCANGCGPGAPSDAEVLHLCRSLEVGTVMTLFYSKKSQRPERKTFQVKLETRQITWSRGADKIEGAIDIREIKEIRPGKTSRDFDRYQEDPAFRPDQSHCFVILYGMEFRLKTLSLQATSEDEVNMWIKGLTWLMEDTLQAPTPLQIERWLRKQFYSVDRNREDRISAKDLKNMLSQVNYRVPNMRFLRERLTDLEQRSGDITYGQFAQLYRSLMYSAQKTMDLPFLEASTLRAGERPELCRVSLPEFQQFLLDYQGELWAVDRLQVQEFMLSFLRDPLREIEEPYFFLDEFVTFLFSKENSVWNSQLDAVCPDTMNNPLSHYWISSSHNTYLTGDQFSSESSLEAYARCLRMGCRCIELDCWDGPDGMPVIYHGHTLTTKIKFSDVLHTIKEHAFVASEYPVILSIEDHCSIAQQRNMAQYFKKVLGDTLLTKPVEISADGLPSPNQLKRKILIKHKKLAEGSAYEEVPTSMMYSENDISNSIKNGILYLEDPVNHEWYPHYFVLTSSKIYYSEETSSDQGNEDEEEPKEVSSSTELHSNEKWFHGKLGAGRDGRHIAERLLTEYCIETGAPDGSFLVRESETFVGDYTLSFWRNGKVQHCRIHSRQDAGTPKFFLTDNLVFDSLYDLITHYQQVPLRCNEFEMRLSEPVPQTNAHESKEWYHASLTRAQAEHMLMRVPRDGAFLVRKRNEPNSYAISFRAEGKIKHCRVQQEGQTVMLGNSEFDSLVDLISYYEKHPLYRKMKLRYPINEEALEKIGTAEPDYGALYEGRNPGFYVEANPMPTFKCAVKALFDYKAQREDELTFIKSAIIQNVEKQEGGWWRGDYGGKKQLWFPSNYVEEMVNPVALEPEREHLDENSPLGDLLRGVLDVPACQIAIRPEGKNNRLFVFSISMASVAHWSLDVAADSQEELQDWVKKIREVAQTADARLTEGKIMERRKKIALELSELVVYCRPVPFDEEKIGTERACYRDMSSFPETKAEKYVNKAKGKKFLQYNRLQLSRIYPKGQRLDSSNYDPLPMWICGSQLVALNFQTPDKPMQMNQALFMTGRHCGYVLQPSTMRDEAFDPFDKSSLRGLEPCAISIEVLGARHLPKNGRGIVCPFVEIEVAGAEYDSTKQKTEFVVDNGLNPVWPAKPFHFQISNPEFAFLRFVVYEEDMFSDQNFLAQATFPVKGLKTGYRAVPLKNNYSEDLELASLLIKIDIFPAKENGD

Assays:
[1] = target: LAT 125-178 (Homo sapiens) (UniProt O43561); assay: ITC; settings: cited from earlier work
SLP-76 (Homo sapiens) = SLP-76 (Homo sapiens) (UniProt Q13094); assay: ITC; settings: cited from earlier work
[2] = target: SLP-76 159-533 (Homo sapiens) (UniProt Q13094); assay: ITC; settings: cited from earlier work
[3] = target: SLP-76 157-420 (Homo sapiens) (UniProt Q13094); assay: ITC; settings: cited from earlier work
[4] = target: LAT 161-180 (Homo sapiens) (UniProt O43561); assay: ITC; settings: cited from earlier work
[5] = target: LAT 122-140 (Homo sapiens) (UniProt O43561); assay: ITC; settings: cited from earlier work
PLC-γ1 (1-1219) = target: T1, PLC-γ1 (1-1219) (UniProt P19174 1-1219); assay: ITC; PEAQ-ITC, 5 °C, 20 mM Hepes pH 7.4, 100 mM NaCl, 0.1 mM DTT; 4 µM in the cell and 40 µM in the syringe, 19 injections of 2 µL; single binding site model with 1:1 stoichiometry; settings: both partners purified
T1 construct: the text calls it full length PLC-γ1; this is the only PLC-γ1 that the methods describe; also called Phospholipase C-γ1; PLC-g1; source: Sf9, purified (HaloLink Resin, TEV cleavage, SEC)
T1 sequence (looked up): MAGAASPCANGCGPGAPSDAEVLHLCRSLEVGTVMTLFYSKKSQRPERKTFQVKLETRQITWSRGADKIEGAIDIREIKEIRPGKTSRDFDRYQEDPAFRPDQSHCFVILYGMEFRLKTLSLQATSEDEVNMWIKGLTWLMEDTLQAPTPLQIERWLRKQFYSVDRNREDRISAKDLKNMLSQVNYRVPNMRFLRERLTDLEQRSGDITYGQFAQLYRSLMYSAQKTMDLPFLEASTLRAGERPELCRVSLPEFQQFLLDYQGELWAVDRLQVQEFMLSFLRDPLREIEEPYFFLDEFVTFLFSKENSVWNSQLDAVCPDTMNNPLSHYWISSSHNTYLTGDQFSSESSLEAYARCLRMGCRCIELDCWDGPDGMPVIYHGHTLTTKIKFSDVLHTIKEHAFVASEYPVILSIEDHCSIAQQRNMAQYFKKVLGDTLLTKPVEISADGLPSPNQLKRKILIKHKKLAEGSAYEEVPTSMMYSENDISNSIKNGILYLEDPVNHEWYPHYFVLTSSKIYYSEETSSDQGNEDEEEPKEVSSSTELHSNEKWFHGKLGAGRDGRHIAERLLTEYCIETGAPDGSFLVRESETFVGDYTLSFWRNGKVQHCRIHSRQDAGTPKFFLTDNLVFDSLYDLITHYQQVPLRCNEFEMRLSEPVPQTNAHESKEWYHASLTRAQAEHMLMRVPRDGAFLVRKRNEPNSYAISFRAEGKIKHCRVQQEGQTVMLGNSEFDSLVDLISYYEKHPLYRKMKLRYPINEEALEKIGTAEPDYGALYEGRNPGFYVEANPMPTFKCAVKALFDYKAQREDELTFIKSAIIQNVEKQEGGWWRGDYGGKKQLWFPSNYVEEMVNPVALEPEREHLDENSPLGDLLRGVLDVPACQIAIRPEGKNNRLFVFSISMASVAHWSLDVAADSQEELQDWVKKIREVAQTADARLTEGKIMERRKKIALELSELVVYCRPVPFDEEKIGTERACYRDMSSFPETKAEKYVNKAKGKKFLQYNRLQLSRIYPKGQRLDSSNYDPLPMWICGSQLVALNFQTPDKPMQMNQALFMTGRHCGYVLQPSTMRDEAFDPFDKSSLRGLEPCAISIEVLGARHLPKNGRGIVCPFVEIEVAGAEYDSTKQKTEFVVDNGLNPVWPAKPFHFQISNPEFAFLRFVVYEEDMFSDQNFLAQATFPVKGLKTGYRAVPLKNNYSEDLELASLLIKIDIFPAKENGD

[6] = target: T2, phosphorylated LAT (48–233aa, pY132, pY171) (UniProt O43561-2 48-233, phosphotyrosine at 132 and 171 (in vitro phosphorylation, validated by mass spectrometry)); assay: cell-based or functional assay
T2 sequence (looked up): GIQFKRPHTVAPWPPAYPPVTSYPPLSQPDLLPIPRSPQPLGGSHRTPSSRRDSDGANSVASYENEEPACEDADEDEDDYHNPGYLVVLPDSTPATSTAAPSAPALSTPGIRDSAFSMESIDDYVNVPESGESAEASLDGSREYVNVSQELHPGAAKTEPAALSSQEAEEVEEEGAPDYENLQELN

[7] = target: B2; assay: cell-based or functional assay
[8] = target: B2; assay: ITC; VP-ITC or PEAQ-ITC; 20 mM Hepes pH 7.4, 100 mM NaCl, 0.1 mM DTT, 5 °C; 4 µM in the cell, 40 µM in the syringe; fit to a single binding site with 1:1 stoichiometry; settings: both partners purified

Sequence of SLP-76 157-420 (Homo sapiens) (Q13094 157-420): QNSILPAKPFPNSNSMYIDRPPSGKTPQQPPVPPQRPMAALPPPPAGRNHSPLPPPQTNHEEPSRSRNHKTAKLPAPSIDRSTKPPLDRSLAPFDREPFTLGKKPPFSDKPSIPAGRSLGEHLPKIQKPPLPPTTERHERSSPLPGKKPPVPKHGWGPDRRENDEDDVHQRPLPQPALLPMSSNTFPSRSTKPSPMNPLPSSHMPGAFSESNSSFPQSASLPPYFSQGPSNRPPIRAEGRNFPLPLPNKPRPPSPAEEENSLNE
Sequence of LAT 125-178 (Homo sapiens) (O43561 125-178): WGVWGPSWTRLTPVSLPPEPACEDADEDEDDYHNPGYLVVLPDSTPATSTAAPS
Sequence of SLP-76 (Homo sapiens) (Q13094 whole entry): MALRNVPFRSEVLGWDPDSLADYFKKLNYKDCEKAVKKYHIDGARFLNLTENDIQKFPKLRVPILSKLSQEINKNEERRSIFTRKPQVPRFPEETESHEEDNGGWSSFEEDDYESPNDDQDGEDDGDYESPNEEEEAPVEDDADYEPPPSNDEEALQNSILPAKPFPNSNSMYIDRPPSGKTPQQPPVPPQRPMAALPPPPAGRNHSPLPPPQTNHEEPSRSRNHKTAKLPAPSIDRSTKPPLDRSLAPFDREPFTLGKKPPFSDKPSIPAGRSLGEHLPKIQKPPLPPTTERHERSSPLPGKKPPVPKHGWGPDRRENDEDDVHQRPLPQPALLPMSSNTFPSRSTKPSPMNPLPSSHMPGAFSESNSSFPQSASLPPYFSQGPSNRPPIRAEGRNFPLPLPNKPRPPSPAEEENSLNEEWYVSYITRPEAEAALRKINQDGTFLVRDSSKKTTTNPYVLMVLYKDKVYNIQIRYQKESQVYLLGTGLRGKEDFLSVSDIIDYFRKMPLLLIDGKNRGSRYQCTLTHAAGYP
Sequence of SLP-76 159-533 (Homo sapiens) (Q13094 159-533): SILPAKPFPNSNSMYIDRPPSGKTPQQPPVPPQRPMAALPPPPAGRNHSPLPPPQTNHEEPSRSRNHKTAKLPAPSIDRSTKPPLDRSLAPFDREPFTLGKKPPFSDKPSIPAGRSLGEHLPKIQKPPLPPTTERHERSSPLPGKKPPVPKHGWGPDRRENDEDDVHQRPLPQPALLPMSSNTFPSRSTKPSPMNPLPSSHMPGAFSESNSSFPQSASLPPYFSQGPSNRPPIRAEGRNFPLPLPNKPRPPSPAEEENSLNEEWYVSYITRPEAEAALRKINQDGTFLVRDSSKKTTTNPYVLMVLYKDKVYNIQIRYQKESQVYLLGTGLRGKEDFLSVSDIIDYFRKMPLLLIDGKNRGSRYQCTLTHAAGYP

PLC-γ1 1-1219 (from UniProt P19174)
Kd [1]: 84 nM

PLC-γ1 (from UniProt P19174)
Kd (SLP-76 (Homo sapiens)): 3340 nM

Gads 1-322 (from UniProt O75791)
Kd [2]: 3.6 nM
Kd [1]: 213 nM
Kd [3]: 19 nM
Kd [4]: 164 nM

PLC-γ1 550-846 (from UniProt P19174)
Kd [3]: 3340 nM
Kd [5]: 62 nM

B1: SLP-76 PRR (aa 185-200) peptide, wild type (peptide, UniProt Q13094 185-200, looked up)
peptide: QPPVPPQRPMAALPPP
notes: SLP-76 proline-rich region, residues 185-200; The peptides are called 'a set of short peptides'; also called SLP-76^WT; SLP-76 PRR_(185-200)
Kd (PLC-γ1 (1-1219)): 2360 nM

B2
PIP2 hydrolysis (IP3) by PLC-γ1 on liposomes containing phospho-LAT alone, compared with liposomes incubated with PLC-γ1 alone [6]: 2.1 fold

B3: SLP-76^WT polypeptide (aa 103–258, Y113F, Y173F) (domain or fragment, UniProt Q13094 103-258, looked up)
chain: GGWSSFEEDDFESPNDDQDGEDDGDYESPNEEEEAPVEDDADYEPPPSNDEEALQNSILPAKPFPNSNSMFIDRPPSGKTPQQPPVPPQRPMAALPPPPAGRNHSPLPPPQTNHEEPSRSRNHKTAKLPAPSIDRSTKPPLDRSLAPFDREPFTLG
notes: source: E. coli Rosetta 2(DE3)pLysS, purified (Glutathione Resin, TEV cleavage, HisTrap, SEC); not shown: His6, N-terminal, cleaved; GST, N-terminal, cleaved
PLC-γ1 activity on PIP2-bearing liposomes (IP3): LAT/Gads/SLP-76^WT/PLC-γ1 tetramer against PLC-γ1 with phospho-LAT alone [7]: 1.7 fold
Kd [8]: 2320 nM
dH [8]: -3.8 kcal/mol

B4: SLP-76 PRR peptide (aa 185–200), wild type (peptide, UniProt Q13094 185-200, looked up)
peptide: QPPVPPQRPMAALPPP
notes: also called SLP-76 185–200 (WT); SLP-76 PRR_(185–200) peptide
Kd [8]: 3990 nM
dH [8]: -3.3 kcal/mol
